# Source: the supplement of paper PMC6755084
# B1: F1*; the commonest letter at each place (parent)
# chain: GAGACCGCAACTGAAAAGTTGTTATCACTTGTCGTAAGACACTTTGGATGGGTTGAAGTTCTGCACGTAGAAGCAAAAGGC
# Variants of: B1
# Assay: fraction ligated after 30 min (ligated reads / total reads); higher = more ligase activity
# Conditions: with F1*sub RNA substrate (template-directed ligation), 42 °C
# Description: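 Chip-synthesised pool of F1* ligase ribozyme variants (all single and double substitutions, single, double and triple deletions in the catalytic core and GAA bulge, plus designed variants) was transcribed with T7 and reacted as a pool with excess substrate F1*sub for 30 min at 42 C in 50 mM EPPS pH 8.5, 25 mM MgCl2. Ligated and unligated bands were separated by PAGE, barcoded by RT and deep sequenced; fraction ligated = ligated reads / total reads per variant, relative activity = FL / FL of wild type (0.826). Sequences are the DNA template of the ribozyme.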
row,Variant,fraction ligated
1,GAGACCGCAACTGAAAAGTTGTTATCAATTGTCGTAAAACACTTTGGATGGGTTGAAGTTCTGCACGTAGAAGCAAAAGGC [C28A G38A],0.789
2,GAGACCGCAACTGAAAAGTTGTTATCAATTGTCGTAATACACTTTGGATGGGTTGAAGTTCTGCACGTAGAAGCAAAAGGC [C28A G38T],0.799
3,GAGACCGCAACTGAAAAGTTGTTAACACTTGTCGTAAGACACTTTGGATCGGTTGAAGTTCTGCACGTAGAAGCAAAAGGC [T25A G50C],0.267
4,GAGACCGCAACTGAAAAGTTGTTATCACTTGTAGTAAGACACCTTGGATGGGTTGAAGTTCTGCACGTAGAAGCAAAAGGC [C33A T43C],0.834
5,GAGACCGCAACTGAAAAGTTGTTATGACTTATCGTAAGACACTTTGGATGGGTTGAAGTTCTGCACGTAGAAGCAAAAGGC [C26G G31A],0.165
6,GAGACCGCAACTGAAAAGTTGTTATCACTTGTCGCAAGACACTTTAGATGGGTTGAAGTTCTGCACGTAGAAGCAAAAGGC [T35C G46A],0.829
7,GAGACCGCAACTGAAAAGTTGTTATCACTTGTTGTAAGACACTTTGGATGGGTTGCAGTTCTGCACGTAGAAGCAAAAGGC [C33T A56C],0.795
8,GAGACCGCAACTGAAAAGTTGTTATCACTTGGCGTAAGACACCTTGGATGGGTTGAAGTTCTGCACGTAGAAGCAAAAGGC [T32G T43C],0.81
9,GAGACCGCAACTGAAAAGTTGTTATCACGTGTCGTAAGACACTATGGATGGGTTGAAGTTCTGCACGTAGAAGCAAAAGGC [T29G T44A],0.848
10,GAGACCGCAACTGAAAAGTTGTTATCACTTGTCGTAAGACTCGTTGGATGGGTTGAAGTTCTGCACGTAGAAGCAAAAGGC [A41T T43G],0.803
11,GAGACCGCAACTGAAAAGTTGTCATCACTTGTCGTAAGACACTTTGGATGGGTTGGAGTTCTGCACGTAGAAGCAAAAGGC [T23C A56G],0.698
12,GAGACCGCAACTGAAAAGTTGTTATGACTTGTCGTAAGCCACTTTGGATGGGTTGAAGTTCTGCACGTAGAAGCAAAAGGC [C26G A39C],0.123
13,GAGACCGCAACTGAAAAGTTGTTATCACTTGTAGTAAGACACTCTGGATGGGTTGAAGTTCTGCACGTAGAAGCAAAAGGC [C33A T44C],0.84
14,GAGACCGCAACTGAAAAGTTGTTATCACTTGGCGTAAGCCACTTTGGATGGGTTGAAGTTCTGCACGTAGAAGCAAAAGGC [T32G A39C],0.855
15,GAGACCGCAACTGAAAAGTTGTTATCACCTGTCGTAAGAGACTTTGGATGGGTTGAAGTTCTGCACGTAGAAGCAAAAGGC [T29C C40G],0.824
16,GAGACCGCAACTGAAAAGTTGTTATCTCTTGTCGCAAGACACTTTGGATGGGTTGAAGTTCTGCACGTAGAAGCAAAAGGC [A27T T35C],0.811
17,GAGACCGCAACTGAAAAGTTGTTATCTCTTGTCGTAAGACATTTTGGATGGGTTGAAGTTCTGCACGTAGAAGCAAAAGGC [A27T C42T],0.822

row,Variant,fraction ligated
1,GAGACCGCAACTGAAAAGTTGTGATCACTTTTCGTAAGACACTTTGGATGGGTTGAAGTTCTGCACGTAGAAGCAAAAGGC [T23G G31T],0.868
2,GAGACCGCAACTGAAAAGTTGTTATCACTTGCCGTAAGACACTTTGGATGGGTTGGAGTTCTGCACGTAGAAGCAAAAGGC [T32C A56G],0.738
3,GAGACCGCAACTGAAAAGTTGTTATCACTTGTCGTAAGACACTGTGGATGGGTTGGAGTTCTGCACGTAGAAGCAAAAGGC [T44G A56G],0.752
4,GAGACCGCAACTGAAAAGTTGTTATTACTTGTCGTAAGACACTTTGGATGGGTTGAAGTTCTGCACGTAGAAGCAAAAGGC [C26T],0.836
5,GAGACCGCAACTGAAAAGTTGTTATCACTTTTCGTAAGAAACTTTGGATGGGTTGAAGTTCTGCACGTAGAAGCAAAAGGC [G31T C40A],0.827
6,GAGACCGCAACTGAAAAGTTGTTATCACTTCTCGTAATACACTTTGGATGGGTTGAAGTTCTGCACGTAGAAGCAAAAGGC [G31C G38T],0.819
7,GAGACCGCAACTGAAAAGTTGTTATCACTTGTCGTAAGACATTTTGGATAGGTTGAAGTTCTGCACGTAGAAGCAAAAGGC [C42T G50A],0.634
8,GAGACCGCAACTGAAAAGTTGTTCTCACTTGTCGTAAGACACTTTGGATCGGTTGAAGTTCTGCACGTAGAAGCAAAAGGC [A24C G50C],0.532
9,GAGACCGCAACTGAAAAGTTGTTATCACTTGTCGTAAGACACTTCGGATGGGTTGGAGTTCTGCACGTAGAAGCAAAAGGC [T45C A56G],0.569
10,GAGACCGCAACTGAAAAGTTGTTATCACTTGTAGTAAGACACTTTGAATGGGTTGAAGTTCTGCACGTAGAAGCAAAAGGC [C33A G47A],0.745
11,GAGACCGCAACTGAAAAGTTGTTATCAATTGTCGTAAGACACCTTGGATGGGTTGAAGTTCTGCACGTAGAAGCAAAAGGC [C28A T43C],0.795
12,GAGACCGCAACTGAAAAGTTGTTATCACTTGTCGCAAGACACTTTGTATGGGTTGAAGTTCTGCACGTAGAAGCAAAAGGC [T35C G47T],0.36
13,GAGACCGCAACTGAAAAGTTGTTATCACTTGTCGTAAGACGCTTTGGGTGGGTTGAAGTTCTGCACGTAGAAGCAAAAGGC [A41G A48G],0.76
14,GAGACCGCAACTGAAAAGTTGTTATCAGTTGTCGTAAGACACGTTGGATGGGTTGAAGTTCTGCACGTAGAAGCAAAAGGC [C28G T43G],0.794
15,GAGACCGCAACTGAAAAGTTGTTATCACTTGTCGCAAGACACTTTGGATGGGTTGGAGTTCTGCACGTAGAAGCAAAAGGC [T35C A56G],0.782
16,GAGACCGCAACTGAAAAGTTGTTATCACTTATCGTAAGACACTTTGGAAGGGTTGAAGTTCTGCACGTAGAAGCAAAAGGC [G31A T49A],0.214
17,GAGACCGCAACTGAAAAGTTGTTATCACTTGTCTTAAGACACTTTGGATTGGTTGAAGTTCTGCACGTAGAAGCAAAAGGC [G34T G50T],0.767
